Measurements from article PMC13208732 (2026).

Key:
[1] = target: T1, recombinant human placental growth factor 2 (PlGF-2) (human, UniProt P49763-3 19-170); assay: ELISA; competition with biotinylated VEGFR1, no heparin
T1 chain: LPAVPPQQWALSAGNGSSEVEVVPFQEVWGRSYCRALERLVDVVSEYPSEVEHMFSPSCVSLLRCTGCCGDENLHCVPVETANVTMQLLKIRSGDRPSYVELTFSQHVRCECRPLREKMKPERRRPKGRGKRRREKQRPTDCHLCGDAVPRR

[2] = target: T1, recombinant human placental growth …; assay: ELISA; competition with biotinylated VEGFR1, 1 ug/mL heparin

B1: VEGFR1 domains 1 to 6 fused to a C-terminal Fc, biotinylated (Fc fusion)
chain: SKLKDPELSLKGTQHIMQAGQTLHLQCRGEAAHKWSLPEMVSKESERLSITKSACGRNGKQFCSTLTLNTAQANHTGFYSCKYLAVPTSKKKETESAIYIFISDTGRPFVEMYSEIPEIIHMTEGRELVIPCRVTSPNITVTLKKFPLDTLIPDGKRIIWDSRKGFIISNATYKEIGLLTCEATVNGHLYKTNYLTHRQTNTIIDVQISTPRPVKLLRGHTLVLNCTATTPLNTRVQMTWSYPDEKNKRASVRRRIDQSNSHANIFYSVLTIDKMQNKDKGLYTCRVRSGPSFKSVNTSVHIYDKAFITVKHRKQQVLETVAGKRSYRLSMKVKAFPSPEVVWLKDGLPATEKSARYLTRGYSLIIKDVTEEDAGNYTILLSIKQSNVFKNLTATLIVNVKPQIYEKAVSSFPDPALYPLGSRQILTCTAYGIPQPTIKWFWHPCNHNHSEARCDFCSNNEESFILDADSNMGNRIESITQRMAIIEGKNKMASTLVVADSRISGIYICIASNKVGTVGRNISFYITDVPNGFHVNLEKMPTEGEDLKLSCTVNKFLYRDVTWILLRTVNNRTMHYSISKQKMAITKEHSITLNLTIMNVSLQDSGTYACRARNVYTGEEILQKKEIT
modifications: biotin (EZ-Link Sulfo-NHS-Biotinylation Kit)
[1]
  IC50: 142 nM
[2]
  IC50: 75.1 nM
